Laboratory results taken from article PMC5835112.

Target: CsrA (Yersinia pseudotuberculosis, UniProt B1JJ99 1-61)
Assay: analytical SEC; 50 uM CsrA, 25 uM RNA
Settings: protein: recombinant; tags: His6 (pET28a); chain copies: 2; hairpin (predicted)

Chain of CsrA (B1JJ99 whole entry): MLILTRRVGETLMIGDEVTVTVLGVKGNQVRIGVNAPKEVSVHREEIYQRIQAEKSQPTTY

B1: urease SD RNA (Pure-CsrA RNA) (structured_RNA)
RNA: CUUUCACUUUCUUAACAUGAUACAGGAGGGCUUAUG
- binding result: binds
